Laboratory results published in publication PMC3701624, “Three-Dimensional Structure of Human NLRP10/PYNOD Pyrin Domain Reveals a Homotypic Interaction Site Distinct from Its Mouse Homologue” (PLoS ONE, 2013).
Each block holds one binder with its values, some of them ahead of it.

Tests used:
[1] = substrate: Nc1ncnc2c1ncn2[C@@H]1O[C@H](COP(=O)(O)OP(=O)(O)OP(=O)(O)O)[C@@H](O)[C@H]1O; assay: malachite green phosphate release, Lineweaver-Burk; assay type: biochemical, Homo sapiens; details: 50 mM Tris-HCl pH 8.0, 10 mM MgCl2, 37°C, 3 µM protein, 0.1–3.2 mM nucleotide
Description: (§1) malachite green phosphate release, Lineweaver-Burk on MBP-huNLRP10 (huNLRP10, PYNOD)

[2] = substrate: Nc1nc2c(ncn2[C@@H]2O[C@H](COP(=O)(O)OP(=O)(O)OP(=O)(O)O)[C@@H](O)[C@H]2O)c(=O)[nH]1; assay: malachite green phosphate release, Lineweaver-Burk; assay type: biochemical, Homo sapiens; details: 50 mM Tris-HCl pH 8.0, 10 mM MgCl2, 37°C, 3 µM protein, 0.1–3.2 mM nucleotide
Description: as §1

[3] = target: T1, MBP-huNLRP10ΔPYD (Arg103-Ile655) (Homo sapiens (Human), UniProt Q86W26); assay: size-exclusion chromatography and pull-down (data not shown)
T1 chain: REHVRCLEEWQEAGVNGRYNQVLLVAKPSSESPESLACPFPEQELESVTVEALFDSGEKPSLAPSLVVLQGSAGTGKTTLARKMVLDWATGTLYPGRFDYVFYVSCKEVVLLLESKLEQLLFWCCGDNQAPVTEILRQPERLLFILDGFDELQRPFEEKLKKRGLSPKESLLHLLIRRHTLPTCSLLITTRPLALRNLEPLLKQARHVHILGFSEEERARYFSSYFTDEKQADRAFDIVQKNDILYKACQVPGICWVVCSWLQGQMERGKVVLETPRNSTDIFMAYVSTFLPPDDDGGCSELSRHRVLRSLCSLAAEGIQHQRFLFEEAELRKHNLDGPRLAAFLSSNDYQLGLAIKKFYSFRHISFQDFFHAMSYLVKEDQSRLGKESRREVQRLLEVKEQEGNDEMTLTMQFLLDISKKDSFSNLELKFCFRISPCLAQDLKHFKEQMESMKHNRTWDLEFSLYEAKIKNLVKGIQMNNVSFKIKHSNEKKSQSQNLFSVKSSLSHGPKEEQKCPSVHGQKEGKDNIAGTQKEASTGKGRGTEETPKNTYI

[4] = substrate: Nc1ncnc2c1ncn2[C@@H]1O[C@H](COP(=O)(O)OP(=O)(O)OP(=O)(O)O)[C@@H](O)[C@H]1O; assay: malachite green phosphate release, Lineweaver-Burk; assay type: biochemical, Homo sapiens; details: 50 mM Tris-HCl pH 8.0, 10 mM MgCl2, 37°C, 3 µM protein, 0.1–3.2 mM nucleotide; remark: listed apart in the source
Description: (§2) malachite green phosphate release, Lineweaver-Burk on MBP-huNLRP10ΔPYD (huNLRP10ΔPYD)

[5] = substrate: Nc1nc2c(ncn2[C@@H]2O[C@H](COP(=O)(O)OP(=O)(O)OP(=O)(O)O)[C@@H](O)[C@H]2O)c(=O)[nH]1; assay: malachite green phosphate release, Lineweaver-Burk; assay type: biochemical, Homo sapiens; details: 50 mM Tris-HCl pH 8.0, 10 mM MgCl2, 37°C, 3 µM protein, 0.1–3.2 mM nucleotide; remark: listed apart in the source
Description: as §2

B1: MBP-huNLRP10 (huNLRP10, PYNOD) (Homo sapiens) (protein)
chain: MAMAKARKPREALLWALSDLEENDFKKLKFYLRDMTLSEGQPPLARGELEGLIPVDLAELLISKYGEKEAVKVVLKGLKVMNLLELVDQLSHICLHDYREVYREHVRCLEEWQEAGVNGRYNQVLLVAKPSSESPESLACPFPEQELESVTVEALFDSGEKPSLAPSLVVLQGSAGTGKTTLARKMVLDWATGTLYPGRFDYVFYVSCKEVVLLLESKLEQLLFWCCGDNQAPVTEILRQPERLLFILDGFDELQRPFEEKLKKRGLSPKESLLHLLIRRHTLPTCSLLITTRPLALRNLEPLLKQARHVHILGFSEEERARYFSSYFTDEKQADRAFDIVQKNDILYKACQVPGICWVVCSWLQGQMERGKVVLETPRNSTDIFMAYVSTFLPPDDDGGCSELSRHRVLRSLCSLAAEGIQHQRFLFEEAELRKHNLDGPRLAAFLSSNDYQLGLAIKKFYSFRHISFQDFFHAMSYLVKEDQSRLGKESRREVQRLLEVKEQEGNDEMTLTMQFLLDISKKDSFSNLELKFCFRISPCLAQDLKHFKEQMESMKHNRTWDLEFSLYEAKIKNLVKGIQMNNVSFKIKHSNEKKSQSQNLFSVKSSLSHGPKEEQKCPSVHGQKEGKDNIAGTQKEASTGKGRGTEETPKNTYI
notes: full length (Met1-Ile655), N-terminal His6-MBP fusion (pETM41), tag kept; E. coli BL21(DE3)
- Km [1]: 169.3 ± 7.3 µM
- Km [2]: 295.6 ± 11.0 µM

- binding result [3]: no binding
B2: human NLRP10/PYNOD pyrin domain (residues 1-100) (protein)
chain: MAMAKARKPREALLWALSDLEENDFKKLKFYLRDMTLSEGQPPLARGELEGLIPVDLAELLISKYGEKEAVKVVLKGLKVMNLLELVDQLSHICLHDYRE

B3: MBP-huNLRP10ΔPYD (huNLRP10ΔPYD) (Homo sapiens) (protein)
chain: REHVRCLEEWQEAGVNGRYNQVLLVAKPSSESPESLACPFPEQELESVTVEALFDSGEKPSLAPSLVVLQGSAGTGKTTLARKMVLDWATGTLYPGRFDYVFYVSCKEVVLLLESKLEQLLFWCCGDNQAPVTEILRQPERLLFILDGFDELQRPFEEKLKKRGLSPKESLLHLLIRRHTLPTCSLLITTRPLALRNLEPLLKQARHVHILGFSEEERARYFSSYFTDEKQADRAFDIVQKNDILYKACQVPGICWVVCSWLQGQMERGKVVLETPRNSTDIFMAYVSTFLPPDDDGGCSELSRHRVLRSLCSLAAEGIQHQRFLFEEAELRKHNLDGPRLAAFLSSNDYQLGLAIKKFYSFRHISFQDFFHAMSYLVKEDQSRLGKESRREVQRLLEVKEQEGNDEMTLTMQFLLDISKKDSFSNLELKFCFRISPCLAQDLKHFKEQMESMKHNRTWDLEFSLYEAKIKNLVKGIQMNNVSFKIKHSNEKKSQSQNLFSVKSSLSHGPKEEQKCPSVHGQKEGKDNIAGTQKEASTGKGRGTEETPKNTYI
notes: NOD only, pyrin domain removed (Arg103-Ile655), N-terminal His6-MBP fusion (pETM41), tag kept; E. coli BL21(DE3)
- Km [4]: 201.9 ± 1.9 µM
- Km [5]: 193.7 ± 17.1 µM
